Laboratory results published in publication PMC11931385, “Structural and functional analysis of cancer-associated missense variants in the retinoblastoma protein pocket domain” (The Journal of Biological Chemistry, 2025).
Substitutions are numbered along the chain they refer to. Names and notes keep the numbering of the source. No end group written: not given here. TMR = tetramethyl rhodamine dye

Columns and labels:
Experiment in all cases: fluorescence polarisation; 37 °C, after the 25 °C reading ramped over 7 min to 37 °C and 2 min incubation; unlabeled Rb^P against 1.5 nM TMR-E2F1^TD or 7.5 nM TMR-E7^LxCxE; 25 mM Tris pH 8.0, 200 mM NaCl, 1 mM DTT, 0.1% Tween-20; apparent Kd
Details in all cases: both partners purified
Rb^P K548N = biological target: T1, Rb^P K548N (human, UniProt P06400 380-788, K548N)
T1 construct: also called variant 26
T1 sequence (looked up): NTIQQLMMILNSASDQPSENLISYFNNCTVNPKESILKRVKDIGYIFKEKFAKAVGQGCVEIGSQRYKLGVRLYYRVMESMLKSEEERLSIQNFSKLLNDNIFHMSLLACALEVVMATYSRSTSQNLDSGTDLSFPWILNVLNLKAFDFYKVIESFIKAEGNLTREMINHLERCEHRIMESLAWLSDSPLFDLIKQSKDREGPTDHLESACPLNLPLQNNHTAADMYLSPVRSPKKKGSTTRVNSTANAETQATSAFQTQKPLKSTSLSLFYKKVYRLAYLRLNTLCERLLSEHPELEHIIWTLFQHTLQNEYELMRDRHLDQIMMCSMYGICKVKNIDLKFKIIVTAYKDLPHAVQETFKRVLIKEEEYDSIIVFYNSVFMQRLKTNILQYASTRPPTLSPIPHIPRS

Rb^P A490T = biological target: T2, Rb^P A490T (human, UniProt P06400 380-788, A490T)
T2 construct: also called variant 16
T2 sequence (looked up): T1 sequence (looked up) with A111T, N169K

Rb^P I703V = biological target: T3, Rb^P I703V (human, UniProt P06400 380-788, I703V)
T3 construct: also called variant 65
T3 sequence (looked up): T1 sequence (looked up) with N169K, I324V

Rb^P V754G = biological target: T4, Rb^P V754G (human, UniProt P06400 380-788, V754G)
T4 construct: also called variant 73
T4 sequence (looked up): T1 sequence (looked up) with N169K, V375G

Rb^P R668H = biological target: T5, Rb^P R668H (human, UniProt P06400 380-788, R668H)
T5 construct: also called variant 52
T5 sequence (looked up): T1 sequence (looked up) with N169K, R289H

B1: TMR-E2F1^TD, peptide of the E2F1 transactivation domain (peptide)
peptide: {TMR}-GEGIRDLFDCDFGDLTPLD
notes: also called E2F^TD; source: synthetic peptide, bought: GenScript
Kd (Rb^P K548N): 178 nM | Kd (Rb^P A490T): 115 nM | Kd (Rb^P I703V): 99 nM | Kd (Rb^P V754G): 34 nM | Kd (Rb^P R668H): 22 nM

B2: TMR-E7^LxCxE, LxCxE peptide of the E7 oncoprotein from HPV (peptide)
peptide: DLYCYEQLN
modifications: also: TMR label, position not given here
notes: source: synthetic peptide, bought: GenScript
Kd (Rb^P K548N): 15 nM | Kd (Rb^P A490T): 33 nM | Kd (Rb^P I703V): 53 nM | Kd (Rb^P V754G): 15 nM | Kd (Rb^P R668H): 28 nM
